Experiment [1] concerns the target human PCNA N107C, N-terminally Histidine-tagged, coupled to SulfoLink agarose resin (PCNA-Agarose column) (human) (UniProt P12004). Briefly: salt-gradient elution from PCNA-Agarose column, empirical cumulative integration.
Experiment [2] has the same target. Briefly: salt-gradient elution from PCNA-Agarose column (N107C PCNA on SulfoLink resin), EMG fit of UV 280 nm peak.
In experiment [3] the target is T1, human PCNA N107C, N-terminally Histidine-tagged, coupled to SulfoLink agarose resin (PCNA-Agarose column) (human, UniProt P12004 1-261, Cys 107 joined by a thioether bond to the iodoacetyl group of SulfoLink agarose resin).
T1 construct: Homo-trimeric ring; Immobilised bait on the column; also called N107C-PCNA; Proliferating Cell Nuclear Antigen
The description is as above.

The target in experiment [4] is T1, human PCNA N107C, N-terminally …. Briefly: salt-gradient elution from PCNA-Agarose column, empirical cumulative integration.
Description: Two different methods were used for defining and determining this salt concentration. One method relies on empirical calculations while the second method employs a specific model for the elution peak shape. For both methods, protein elution from the column was monitored by the value recorded by the UV detector at 280 nm. The UV absorption was then plotted on the y-axis versus the NaCl concentration (here denoted as 'c') on the x-axis in the gradient region of each chromatogram. Since linear gradients were used for elution, the conversion is readily feasible from the volume in ml to salt concentration in mM on the x-axis, resulting in direct rescaling of the axis.
A binding assay based on chromatography is presented, where the PCNA-Agarose column is used as an analytical tool. The protein of interest was loaded onto the PCNA-Agarose column at low salt concentration followed by extensive washing with a buffer of an equal ionic strength to remove the non-specifically bound proteins. A salt gradient was applied to the column to elute the bound protein of interest. This gradient region of elution in the chromatogram was used for the subsequent analysis. […] The resulting data points, i.e., UV units versus salt concentrations, were analyzed either by the empirical method of cumulative integration or by fitting the peak profile with an EMG model. […]

The text below walks through data of patent US12583886 (KING ABDULLAH UNIVERSITY OF SCIENCE AND TECHNOLOGY, dated 2026).

T1 sequence (P12004 other isoform, or with tags, fused parts or gaps N107C N107C limits assumed): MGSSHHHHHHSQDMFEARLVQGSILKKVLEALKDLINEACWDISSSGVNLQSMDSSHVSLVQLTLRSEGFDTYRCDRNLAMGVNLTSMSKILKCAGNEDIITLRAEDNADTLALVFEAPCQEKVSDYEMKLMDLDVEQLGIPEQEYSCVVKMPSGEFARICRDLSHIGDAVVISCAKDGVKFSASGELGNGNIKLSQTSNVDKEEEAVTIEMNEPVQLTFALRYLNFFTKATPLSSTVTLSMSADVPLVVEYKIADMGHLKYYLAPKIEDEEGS
Chain of human PCNA N107C, N-terminally Histidine-tagged, coupled to SulfoLink agarose resin (PCNA-Agarose column) (human) (P12004 other isoform, or with tags, fused parts or gaps N107C N107C limits assumed): as above

As for “human DNA polymerase delta (Polδ), four-subunit complex p125/p50/p68/p12 expressed in Sf9 insect cells (from UniProt P28340 1-1107; P49005 1-469; Q15054 1-466; Q9HCU8 1-107) (enzyme)”, the median NaCl concentration of elution (50% cumulative elution) in experiment [1] is over 400 mM. Moreover, the Elution Peak (mM NaCl, mode of EMG fit) in experiment [2] was determined as 534 mM.

B1: human p15, N-terminally Histidine- and SUMO-tagged (other, UniProt Q15004 1-111, looked up)
chain: MVRTKADSVPGTYRKVVAARAPRKVLGSSTSATNSTSVSSRKAENKYAGGNPVCVRPTPKWQKGIGEFFRLSPKDSEKENQIPEEAGSSGLGKAKRKACPLQPDHTNDEKE
notes: mature; The PCNA-Agarose column was the first step, so the His- and SUMO-tags were still on the protein; not shown: N-terminal Histidine tag and SUMO tag from the pESUMO pro vector
B1: the “Elution Peak (mM NaCl, mode of EMG fit)” value in experiment [3] is 340 mM.

B2: human DNA polymerase kappa (Polκ), N-terminally Histidine- and SUMO-tagged (enzyme, UniProt Q9UBT6 1-870, looked up)
chain: MDSTKEKCDSYKDDLLLRMGLNDNKAGMEGLDKEKINKIIMEATKGSRFYGNELKKEKQVNQRIENMMQQKAQITSQQLRKAQLQVDRFAMELEQSRNLSNTIVHIDMDAFYAAVEMRDNPELKDKPIAVGSMSMLSTSNYHARRFGVRAAMPGFIAKRLCPQLIIVPPNFDKYRAVSKEVKEILADYDPNFMAMSLDEAYLNITKHLEERQNWPEDKRRYFIKMGSSVENDNPGKEVNKLSEHERSISPLLFEESPSDVQPPGDPFQVNFEEQNNPQILQNSVVFGTSAQEVVKEIRFRIEQKTTLTASAGIAPNTMLAKVCSDKNKPNGQYQILPNRQAVMDFIKDLPIRKVSGIGKVTEKMLKALGIITCTELYQQRALLSLLFSETSWHYFLHISLGLGSTHLTRDGERKSMSVERTFSEINKAEEQYSLCQELCSELAQDLQKERLKGRTVTIKLKNVNFEVKTRASTVSSVVSTAEEIFAIAKELLKTEIDADFPHPLRLRLMGVRISSFPNEEDRKHQQRSIIGFLQAGNQALSATECTLEKTDKDKFVKPLEMSHKKSFFDKKRSERKWSHQDTFKCEAVNKQSFQTSQPFQVLKKKMNENLEISENSDDCQILTCPVCFRAQGCISLEALNKHVDECLDGPSISENFKMFSCSHVSATKVNKKENVPASSLCEKQDYEAHPKIKEISSVDCIALVDTIDNSSKAESIDALSNKHSKEECSSLPSKSFNIEHCHQNSSSTVSLENEDVGSFRQEYRQPYLCEVKTGQALVCPVCNVEQKTSDLTLFNVHVDVCLNKSFIQELRKDKFNPVNQPKESSRSTGSSSGVQKAVTRTKRPGLMTKYSTSKKIKPNNPKHTLDIFFK
notes: mature; The SUMO tag was removed only after the PCNA-Agarose step; also called Polk; not shown: N-terminal Histidine tag and SUMO tag from the pESUMO pro vector
Turning to B2, the “median NaCl concentration of elution (50% cumulative elution)” value in experiment [4] is over 400 mM. The “Elution Peak (mM NaCl, mode of EMG fit)” value in experiment [3] turned out to be 547 mM.

B3: human DNA polymerase iota (Polι), N-terminally Histidine- and SUMO-tagged (enzyme, UniProt Q9UNA4 1-740, looked up)
chain: MEKLGVEPEEEGGGDDDEEDAEAWAMELADVGAAASSQGVHDQVLPTPNASSRVIVHVDLDCFYAQVEMISNPELKDKPLGVQQKYLVVTCNYEARKLGVKKLMNVRDAKEKCPQLVLVNGEDLTRYREMSYKVTELLEEFSPVVERLGFDENFVDLTEMVEKRLQQLQSDELSAVTVSGHVYNNQSINLLDVLHIRLLVGSQIAAEMREAMYNQLGLTGCAGVASNKLLAKLVSGVFKPNQQTVLLPESCQHLIHSLNHIKEIPGIGYKTAKCLEALGINSVRDLQTFSPKILEKELGISVAQRIQKLSFGEDNSPVILSGPPQSFSEEDSFKKCSSEVEAKNKIEELLASLLNRVCQDGRKPHTVRLIIRRYSSEKHYGRESRQCPIPSHVIQKLGTGNYDVMTPMVDILMKLFRNMVNVKMPFHLTLLSVCFCNLKALNTAKKGLIDYYLMPSLSTTSRSGKHSFKMKDTHMEDFPKDKETNRDFLPSGRIESTRTRESPLDTTNFSKEKDINEFPLCSLPEGVDQEVFKQLPVDIQEEILSGKSREKFQGKGSVSCPLHASRGVLSFFSKKQMQDIPINPRDHLSSSKQVSSVSPCEPGTSGFNSSSSSYMSSQKDYSYYLDNRLKDERISQGPKEPQGFHFTNSNPAVSAFHSFPNLQSEQLFSRNHTTDSHKQTVATDSHEGLTENREPDSVDEKITFPSDIDPQVFYELPEAVQKELLAEWKRAGSDFHIGHK
notes: mature; The SUMO tag was removed only after the PCNA-Agarose step; also called Polt; Poli; not shown: N-terminal Histidine tag and SUMO tag from the pESUMO pro vector
As for B3, the “Elution Peak (mM NaCl, mode of EMG fit)” value in experiment [3] was 359 mM.

B4: human DNA polymerase eta (Polη), native after SUMO protease digestion (enzyme, UniProt Q9Y253 1-713, looked up)
chain: MATGQDRVVALVDMDCFFVQVEQRQNPHLRNKPCAVVQYKSWKGGGIIAVSYEARAFGVTRSMWADDAKKLCPDLLLAQVRESRGKANLTKYREASVEVMEIMSRFAVIERASIDEAYVDLTSAVQERLQKLQGQPISADLLPSTYIEGLPQGPTTAEETVQKEGMRKQGLFQWLDSLQIDNLTSPDLQLTVGAVIVEEMRAAIERETGFQCSAGISHNKVLAKLACGLNKPNRQTLVSHGSVPQLFSQMPIRKIRSLGGKLGASVIEILGIEYMGELTQFTESQLQSHFGEKNGSWLYAMCRGIEHDPVKPRQLPKTIGCSKNFPGKTALATREQVQWWLLQLAQELEERLTKDRNDNDRVATQLVVSIRVQGDKRLSSLRRCCALTRYDAHKMSHDAFTVIKNCNTSGIQTEWSPPLTMLFLCATKFSASAPSSSTDITSFLSSDPSSLPKVPVTSSEAKTQGSGPAVTATKKATTSLESFFQKAAERQKVKEASLSSLTAPTQAPMSNSPSKPSLPFQTSQSTGTEPFFKQKSLLLKQKQLNNSSVSSPQQNPWSNCKALPNSLPTEYPGCVPVCEGVSKLEESSKATPAEMDLAHNSQSMHASSASKSVLEVTQKATPNPSLLAAEDQVPCEKCGSLVPVWDMPEHMDYHFALELQKSFLQPHSSNPQVVSAVSHQGKRNPKSPLACTNKRPRPEGMQTLESFFKPLTH
notes: mature; also called Poln
Consider B4, for which, in experiment [4], the “median NaCl concentration of elution (50% cumulative elution)” value was over 400 mM. Besides, in experiment [3], the “Elution Peak (mM NaCl, mode of EMG fit)” value was 513 mM.
